Target: MTS-LOV2^V416L (membrane-anchored Light-oxygen-voltage-sensing domain 2, V416L variant)

Zdk1-N1ICD (Zdark 1 fused to the human NOTCH1 intracellular domain) (designed binder)
12xCSL-Luc luciferase reporter (RLU) in HEK293T cells, 48 h after blue light activation (0.05-s pulses for 1, 3 and 12 h), against LOV2^WT: 5 fold

Source: publication PMC9118860
